“Also recorded” adds a separate entry of the source.
What was measured:
Cdk5/P35 [1] = biological target: T1, Cdk5/P35 (Rattus norvegicus, UniProt Q03114); test: Kinase assay of Cdk5 immunoprecipitates from cortical neurons, infected or endogenous Cdk5/P35; assay type: cell-based; conditions: cortical neurons infected only with P5, or uninfected treated with 20 μM roscovitine
T1 construct: endogenous in cells; host or cells: E-18 rat cortical neurons
Protocol: (§1) Briefly, 7 days in culture (7 DIC) primary rat cortical neurons were infected with P25, P35, Cdk5 wild-type, dominant negative-Cdk5 and P5 using the lentiviral gene delivery as described earlier. Cdk5 was immunoprecipitated using the polyclonal C8 antibody overnight at 4° C. and immunoglobulin isolated using Protein A sepharose beads for 2 hours at 4° C. Immunoprecipitates were washed three times with lysis buffer and then once with 1× kinase buffer containing 20 mM Tris-Cl pH 7.4, 1 mM EDTA, 1 mM EGTA, 10 mM MgCl2, 10 mM sodium fluoride and 1 mM sodium orthovanadate. Endogenous Cdks were immunoprecipitated from HEK 293 cells using their respective antibodies and treated as above. […] ATP with 20 μg of histone H1 as the substrate. Phosphorylation was performed in a final volume of […] incubated at 30° C. for 60 minutes, stopped by the addition of 10% SDS sample buffer and heating at 95° C. for 5 minutes. Samples were separated by SDS-PAGE, gels were stained with Coomassie, destained, dried and exposed to autoradiography. In pad assays, 25 μl aliquots of the incubation mixture were placed on a Whatman p80 paper square, washed and dried and placed in a scintillation vial for counting.

Cdk5/P35 [2] = test: as above; assay type: cell-based, rat; conditions: E-18 rat cortical neurons co-infected with P5
Protocol: as §1

[3] = tested on: Cdc2, Cdk2, Cdk4, and Cdk6; test: Kinase assay of cell cycle Cdk immunoprecipitates from HEK293 cells infected with P5-myc or treated with roscovitine; assay type: cell-based, human; conditions: HEK293 cells infected with P5-myc or treated with 20 μM roscovitine
Protocol: as §1

Cdk5/P35 [4] = biological target: Cdk5/P35 (Homo sapiens, UniProt Q00535); test: Cdk5/P35 kinase assay after pre-incubation with β-tubulin; assay type: biochemical
Protocol: (§2) Tubulin polymerization was performed as detailed in a previous report (Hou et al., J. Biol. Chem., 282(26), 18666-18670, 2007). Briefly, active kinase Cdk5/P35 (2 ng/μL) or active Cdk5/P25 (1 ng/μL) were incubated with β-tubulin (enzyme: tubulin at 1:100) in the PEM buffer (80 mM PIPES, 2 mM MgCl2, 1 mM EGTA PH 7.0) supplemented with 1 mM GTP at 35° C. for 45 minutes. Following the incubation, Cdk5 kinase assays were performed with or without the addition of 0.45 μM or 0.90 μM P5.
(§3) To further explore this possibility, β-tubulin (which is enriched in neurons) was used to perform a study in vitro to mimic P35 interactions in cells. Cdk5/P35 and Cdk5/P25 active kinases were pre-incubated with β-tubulin (Cdk5 kinase:tubulin=1:100) respectively at 35° C. for 45 minutes to 1 hour under conditions that would promote tubulin polymerization, followed by a Cdk5 kinase assay with/without the addition of P5. […] Cdk5/P25 activity, however, was inhibited 60% after pre-incubation at the lower P5 concentration (0.45 μM) (FIG. 9B, lane 4 compared with lane 1) (p<0.01). […] On the other hand, P25, lacking the P10 domain, fails to bind these proteins, and P5 readily binds with Cdk5 in the Cdk5/P25 complex to inhibit activity.

Cdk5/P25 [5] = biological target: T2, Cdk5/P25 (Homo sapiens, UniProt Q00535); test: Cdk5/P25 kinase assay after pre-incubation with β-tubulin; assay type: biochemical
Protocol: as §2, §3

Cdk5/P25 [6] = biological target: T2, Cdk5/P25; test: Kinase assay of Cdk5 immunoprecipitates from cortical neurons infected with Cdk5/P25 with or without P5; assay type: cell-based; parameters: expressed in transfected cells; host or cells: E-18 rat cortical neurons, adenoviral infection (pAdTrack-CMV / AdEasy); conditions: E-18 rat cortical neurons co-infected with P5
Protocol: Primary cultures of rat cortical neurons were prepared from E-18 rat fetuses as described previously (Zheng et al., J Biol Chem 278(26), 24026-24032, 2003). After 7 days, cells were infected independently or co-infected with empty vector (EV), the constructs of P5, P25, P35, wild-type Cdk5 and dominant negative Cdk5 (changing Lys33 to Thr33) using the Adenoviral vector (pAdTrack-CMV) packaging system as described above. […] The cells were fixed for immunocytochemistry analyses (ICC) or lysed with lysis buffer for immunoprecipitation and Western blot analyses. Cortical neuron cultures were prepared and plated on the cover slips as described. Human embryo kidney cells (HEK293) were grown as described previously (Zheng et al., Eur J Biochem 269(18), 4427-4434, 2002). In these studies HEK293 cells on day 1, or neurons on day 5, were transfected with or without Myc-P5-GFP using Lipofectamine 2000 following the manufacturer's instructions.
Kinase assays were performed as previously described (Veeranna, et al., J Neurosci 18(11), 4008-4021, 1998). Briefly, 7 days in culture (7 DIC) primary rat cortical neurons were infected with P25, P35, Cdk5 wild-type, dominant negative-Cdk5 and P5 using the lentiviral gene delivery as described earlier. […]

T2 sequence (Q00535 whole entry, species assumed): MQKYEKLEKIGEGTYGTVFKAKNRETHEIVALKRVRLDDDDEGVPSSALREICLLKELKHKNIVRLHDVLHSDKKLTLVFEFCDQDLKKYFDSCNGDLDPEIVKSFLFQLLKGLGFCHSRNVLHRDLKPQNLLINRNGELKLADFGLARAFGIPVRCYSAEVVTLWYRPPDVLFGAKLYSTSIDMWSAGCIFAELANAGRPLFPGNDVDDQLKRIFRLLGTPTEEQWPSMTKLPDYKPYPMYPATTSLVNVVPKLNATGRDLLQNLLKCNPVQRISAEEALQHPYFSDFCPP
Chain of Cdk5/P35 (Homo sapiens, UniProt Q00535) (Q00535 whole entry, species assumed): as above
T1 sequence (Q03114 whole entry): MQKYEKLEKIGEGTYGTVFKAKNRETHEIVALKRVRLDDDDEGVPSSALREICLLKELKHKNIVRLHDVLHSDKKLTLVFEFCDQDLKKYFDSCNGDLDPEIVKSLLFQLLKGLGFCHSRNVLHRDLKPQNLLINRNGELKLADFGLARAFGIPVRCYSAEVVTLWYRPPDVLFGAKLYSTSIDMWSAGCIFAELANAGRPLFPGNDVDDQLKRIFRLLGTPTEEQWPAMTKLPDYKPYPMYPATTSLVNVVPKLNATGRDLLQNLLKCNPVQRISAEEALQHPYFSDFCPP
T1 sequence (P61810 2-307 partner): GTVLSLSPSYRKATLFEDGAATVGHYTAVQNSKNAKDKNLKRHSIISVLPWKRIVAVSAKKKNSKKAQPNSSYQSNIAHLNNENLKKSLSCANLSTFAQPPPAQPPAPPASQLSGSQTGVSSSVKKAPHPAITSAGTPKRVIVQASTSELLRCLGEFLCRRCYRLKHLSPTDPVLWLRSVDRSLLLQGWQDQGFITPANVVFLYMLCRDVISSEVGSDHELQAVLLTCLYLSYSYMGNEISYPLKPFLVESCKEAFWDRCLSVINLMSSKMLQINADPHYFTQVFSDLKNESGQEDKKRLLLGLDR

In the case of “P5: 24 residue peptide derived from Cdk5 activator P35 (K254-A277 of SEQ ID NO: 16); Cdk5 inhibitory peptide (KEAFWDRCLSVINLMSSKMLQINA; listed as Homo sapiens)”, the “Effect on endogenous Cdk5/P35 activity” value (Cdk5/P35 [1]) is reported as “no reduction in activity”, the “Inhibition of Cdk5 activity in neurons co-infected with Cdk5/P35” value (Cdk5/P35 [2]) is reported as 10-20% and the “Inhibition of endogenous cell cycle Cdk activity” value [3] is reported as “virtually no effect; also recorded: no inhibition in all cases; also recorded: unaffected by P5”. For the same substance, the “Inhibition of Cdk5/P35 activity pre-incubated with polymerized tubulin” value (Cdk5/P35 [4]; 0.45 μM P5) was “no effect on pre-incubated Cdk5/P35 activity; also recorded: not inhibited; also recorded: had no effect on Cdk5/P35”, the “Inhibition of Cdk5/P35 activity with unpolymerized tubulin (no pre-incubation)” value (Cdk5/P35 [4]; 0.45 μM P5) was “P5 inhibits both kinases equally; also recorded: inhibited both Cdk5/P35 and Cdk5/P25 activities equally; also recorded: inhibited both complexes equally” and the “Inhibition of Cdk5/P35 activity pre-incubated with polymerized tubulin” value (Cdk5/P35 [4]; 0.9 μM P5) was “both kinase complexes are inhibited equally; also recorded: both Cdk5 complexes were inhibited”. For the same substance, the “Inhibition of Cdk5/P25 activity with unpolymerized tubulin (no pre-incubation)” value (Cdk5/P25 [5]; 0.45 μM P5) was “P5 inhibits both kinases equally; also recorded: inhibited both Cdk5/P35 and Cdk5/P25 activities equally; also recorded: inhibited both complexes equally”, the “Inhibition of Cdk5/P25 activity pre-incubated with polymerized tubulin” value (Cdk5/P25 [5]; 0.9 μM P5) was “both kinase complexes are inhibited equally; also recorded: both Cdk5 complexes were inhibited” and the “Decrease of Cdk5 activity in neurons infected with Cdk5/P25” value (Cdk5/P25 [6]) was “more than 90%”.

— patent US8597660B2, “Therapeutic approach to neurodegenerative disorders using a TFP5-peptide” (The United States of America, as represented by the …, priority 2010, dated 2013)
